One may read the Kd as the constant that tells how readily two partners part at equilibrium. The low end stands for tighter binding, the high end for weaker binding.

Data on 23 molecules can be found in publication PMC10786891, “Massively parallel profiling of RNA-targeting CRISPR-Cas13d”.

The labels stand for the following.
T1: EsCas13d, nuclease-dead (Eubacterium siraeum, UniProt B0MS50, R295A;H300A;R849A;H854A)
T1 sequence: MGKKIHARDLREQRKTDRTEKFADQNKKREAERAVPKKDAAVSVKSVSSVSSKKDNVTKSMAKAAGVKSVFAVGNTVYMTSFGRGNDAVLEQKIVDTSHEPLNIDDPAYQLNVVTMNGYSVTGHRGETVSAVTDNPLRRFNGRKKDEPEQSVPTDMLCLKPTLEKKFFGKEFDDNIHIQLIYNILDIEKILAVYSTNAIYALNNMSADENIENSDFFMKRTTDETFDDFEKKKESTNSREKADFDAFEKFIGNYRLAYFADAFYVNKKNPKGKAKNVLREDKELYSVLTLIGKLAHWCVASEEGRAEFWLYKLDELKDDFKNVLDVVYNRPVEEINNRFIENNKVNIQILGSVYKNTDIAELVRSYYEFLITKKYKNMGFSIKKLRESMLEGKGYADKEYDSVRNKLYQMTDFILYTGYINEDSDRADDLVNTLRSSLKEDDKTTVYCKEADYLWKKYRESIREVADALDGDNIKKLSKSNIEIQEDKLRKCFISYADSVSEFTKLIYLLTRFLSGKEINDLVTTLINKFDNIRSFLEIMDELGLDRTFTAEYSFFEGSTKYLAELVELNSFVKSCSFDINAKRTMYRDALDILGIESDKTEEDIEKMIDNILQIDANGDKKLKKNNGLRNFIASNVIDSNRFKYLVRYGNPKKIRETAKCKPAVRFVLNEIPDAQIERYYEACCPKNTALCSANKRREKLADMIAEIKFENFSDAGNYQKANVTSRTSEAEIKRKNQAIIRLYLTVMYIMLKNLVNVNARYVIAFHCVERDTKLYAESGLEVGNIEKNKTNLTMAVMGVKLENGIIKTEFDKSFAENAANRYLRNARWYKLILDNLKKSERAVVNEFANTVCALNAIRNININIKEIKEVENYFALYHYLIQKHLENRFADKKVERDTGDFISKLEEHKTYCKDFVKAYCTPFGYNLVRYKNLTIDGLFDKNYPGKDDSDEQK

B1: target 1 insC 3' of 9,insU 3' of 2 (mixed)
RNA 1: CACCCGUGCAAAAAUGCAGGGGUCUAAAACUGAGCGGAUAACCUCUCUAUGG
RNA 2: GGGAAUGGAUCCACAUCUACGAAUUCGUACCAUAGAGAGGUUACUCCGCUCUACCGAGAUCGGAAGAGCACACGU
B2: target 1 del8,del16 (mixed)
RNA 1: CACCCGUGCAAAAAUGCAGGGGUCUAAAACUGAGCGGAUAACCUCUCUAUGG
RNA 2: GGGAAUGGAUCCACAUCUACGAAUUCGUACCAUAGGAGGUUACCGCUCACCGAGAUCGGAAGAGCACACGU
B3: target 1 C2A,A16G (mixed)
RNA 1: CACCCGUGCAAAAAUGCAGGGGUCUAAAACUGAGCGGAUAACCUCUCUAUGG
RNA 2: GGGAAUGGAUCCACAUCUACGAAUUCGUACCAUAGGGAGGUUAUCCGCUAACCGAGAUCGGAAGAGCACACGU
B4: target 1 insC 3' of 12,insC 3' of 10 (mixed)
RNA 1: CACCCGUGCAAAAAUGCAGGGGUCUAAAACUGAGCGGAUAACCUCUCUAUGG
RNA 2: GGGAAUGGAUCCACAUCUACGAAUUCGUACCAUAGAGAGGCUUCAUCCGCUCACCGAGAUCGGAAGAGCACACGU
B5: target 1 insU 3' of 14,insA 3' of 13 (mixed)
RNA 1: CACCCGUGCAAAAAUGCAGGGGUCUAAAACUGAGCGGAUAACCUCUCUAUGG
RNA 2: GGGAAUGGAUCCACAUCUACGAAUUCGUACCAUAGAGAUGAGUUAUCCGCUCACCGAGAUCGGAAGAGCACACGU
B6: target 1 del11,del14 (mixed)
RNA 1: CACCCGUGCAAAAAUGCAGGGGUCUAAAACUGAGCGGAUAACCUCUCUAUGG
RNA 2: GGGAAUGGAUCCACAUCUACGAAUUCGUACCAUAGAGGGUAUCCGCUCACCGAGAUCGGAAGAGCACACGU
B7: target 1 U3G,U8G (mixed)
RNA 1: CACCCGUGCAAAAAUGCAGGGGUCUAAAACUGAGCGGAUAACCUCUCUAUGG
RNA 2: GGGAAUGGAUCCACAUCUACGAAUUCGUACCAUAGAGAGGUUAGCCGCGCACCGAGAUCGGAAGAGCACACGU
B8: target 1 G17U,C22A (mixed)
RNA 1: CACCCGUGCAAAAAUGCAGGGGUCUAAAACUGAGCGGAUAACCUCUCUAUGG
RNA 2: GGGAAUGGAUCCACAUCUACGAAUUCGUAACAUAUAGAGGUUAUCCGCUCACCGAGAUCGGAAGAGCACACGU
B9: target 1 insC 3' of 13,insG 3' of 4 (mixed)
RNA 1: CACCCGUGCAAAAAUGCAGGGGUCUAAAACUGAGCGGAUAACCUCUCUAUGG
RNA 2: GGGAAUGGAUCCACAUCUACGAAUUCGUACCAUAGAGAGCGUUAUCCGCGUCACCGAGAUCGGAAGAGCACACGU
B10: target 1 insG 3' of 14,insC 3' of 13 (mixed)
RNA 1: CACCCGUGCAAAAAUGCAGGGGUCUAAAACUGAGCGGAUAACCUCUCUAUGG
RNA 2: GGGAAUGGAUCCACAUCUACGAAUUCGUACCAUAGAGAGGCGUUAUCCGCUCACCGAGAUCGGAAGAGCACACGU
B11: target 1 insA 3' of 6,insA 3' of 5 (mixed)
RNA 1: CACCCGUGCAAAAAUGCAGGGGUCUAAAACUGAGCGGAUAACCUCUCUAUGG
RNA 2: GGGAAUGGAUCCACAUCUACGAAUUCGUACCAUAGAGAGGUUAUCCAGACUCACCGAGAUCGGAAGAGCACACGU
B12: target 1 insA 3' of 5,insC 3' of 5 (mixed)
RNA 1: CACCCGUGCAAAAAUGCAGGGGUCUAAAACUGAGCGGAUAACCUCUCUAUGG
RNA 2: GGGAAUGGAUCCACAUCUACGAAUUCGUACCAUAGAGAGGUUAUCCGACCUCACCGAGAUCGGAAGAGCACACGU
B13: target 1 insG 3' of 11,insU 3' of 4 (mixed)
RNA 1: CACCCGUGCAAAAAUGCAGGGGUCUAAAACUGAGCGGAUAACCUCUCUAUGG
RNA 2: GGGAAUGGAUCCACAUCUACGAAUUCGUACCAUAGAGAGGUGUAUCCGCUUCACCGAGAUCGGAAGAGCACACGU
B14: target 1 insA 3' of 3,insG 3' of 3 (mixed)
RNA 1: CACCCGUGCAAAAAUGCAGGGGUCUAAAACUGAGCGGAUAACCUCUCUAUGG
RNA 2: GGGAAUGGAUCCACAUCUACGAAUUCGUACCAUAGAGAGGUUAUCCGCUAGCACCGAGAUCGGAAGAGCACACGU
B15: target 1 A14G,G15A (mixed)
RNA 1: CACCCGUGCAAAAAUGCAGGGGUCUAAAACUGAGCGGAUAACCUCUCUAUGG
RNA 2: GGGAAUGGAUCCACAUCUACGAAUUCGUACCAUAGAAGGGUUAUCCGCUCACCGAGAUCGGAAGAGCACACGU
B16: target 1 insA 3' of 13,insU 3' of 5 (mixed)
RNA 1: CACCCGUGCAAAAAUGCAGGGGUCUAAAACUGAGCGGAUAACCUCUCUAUGG
RNA 2: GGGAAUGGAUCCACAUCUACGAAUUCGUACCAUAGAGAGAGUUAUCCGUCUCACCGAGAUCGGAAGAGCACACGU
B17: target 1 insA 3' of 17,insC 3' of 11 (mixed)
RNA 1: CACCCGUGCAAAAAUGCAGGGGUCUAAAACUGAGCGGAUAACCUCUCUAUGG
RNA 2: GGGAAUGGAUCCACAUCUACGAAUUCGUACCAUAGAAGAGGUCUAUCCGCUCACCGAGAUCGGAAGAGCACACGU
B18: target 1 insU 3' of 6,insG 3' of 6 (mixed)
RNA 1: CACCCGUGCAAAAAUGCAGGGGUCUAAAACUGAGCGGAUAACCUCUCUAUGG
RNA 2: GGGAAUGGAUCCACAUCUACGAAUUCGUACCAUAGAGAGGUUAUCCUGGCUCACCGAGAUCGGAAGAGCACACGU
B19: target 1 insA 3' of 5,insA 3' of 4 (mixed)
RNA 1: CACCCGUGCAAAAAUGCAGGGGUCUAAAACUGAGCGGAUAACCUCUCUAUGG
RNA 2: GGGAAUGGAUCCACAUCUACGAAUUCGUACCAUAGAGAGGUUAUCCGACAUCACCGAGAUCGGAAGAGCACACGU
B20: target 1 insU 3' of 17,insU 3' of 17 (mixed)
RNA 1: CACCCGUGCAAAAAUGCAGGGGUCUAAAACUGAGCGGAUAACCUCUCUAUGG
RNA 2: GGGAAUGGAUCCACAUCUACGAAUUCGUACCAUAGUUAGAGGUUAUCCGCUCACCGAGAUCGGAAGAGCACACGU
B21: target 1 C6A,G17U (mixed)
RNA 1: CACCCGUGCAAAAAUGCAGGGGUCUAAAACUGAGCGGAUAACCUCUCUAUGG
RNA 2: GGGAAUGGAUCCACAUCUACGAAUUCGUACCAUAUAGAGGUUAUCAGCUCACCGAGAUCGGAAGAGCACACGU
B22: target 1 U11A,C22A (mixed)
RNA 1: CACCCGUGCAAAAAUGCAGGGGUCUAAAACUGAGCGGAUAACCUCUCUAUGG
RNA 2: GGGAAUGGAUCCACAUCUACGAAUUCGUAACAUAGAGAGGAUAUCCGCUCACCGAGAUCGGAAGAGCACACGU
B23: target 1 insC 3' of 8,insG 3' of 4 (mixed)
RNA 1: CACCCGUGCAAAAAUGCAGGGGUCUAAAACUGAGCGGAUAACCUCUCUAUGG
RNA 2: GGGAAUGGAUCCACAUCUACGAAUUCGUACCAUAGAGAGGUUAUCCCGCGUCACCGAGAUCGGAAGAGCACACGU

This series concerns the target T1, EsCas13d, nuclease-dead. Put plainly: crRNA (strand 1, pre-loaded); Mg2+; 40 mM Tris-HCl pH 7.5, 150 mM NaCl, 6 mM MgCl2, 1 mM DTT, 0.1% Tween-20, 0.2 mg/ml BSA; 25 C; 10 min per concentration, then washed. Particulars: tags: His6-TwinStrep-SUMO cleaved; N-terminal SNAP kept (SNAP-Surface 488); label: 3' end held by stalled T7 RNA polymerase.
The molecule B1 yielded a Kd of 13.9 ± 0.9 nM.
For the molecule B2, the dissociation constant (Kd) amounted to 71 ± 18 nM.
B3: the Kd stood at 28.5 ± 2 nM.
In turn, B4 displayed a Kd of 23.9 ± 2.9 nM.
Then B5, with 9.2 ± 0.8 nM; and B6, with 32.4 ± 1.8 nM.
For the molecule B7, the Kd was found to be 10.8 ± 0.4 nM.
With B8, the affinity, expressed as Kd, was 31.3 ± 3 nM.
Consider B9, for which binding was put at a Kd of 5.33 ± 0.22 nM.
With B10, the Kd came to 13.7 ± 0.9 nM.
With B11 the figure was 53 ± 6 nM; with B12, 11.3 ± 1 nM; with B13, 65 ± 15 nM.
Then B14, with 6.2 ± 0.5 nM; and B15, with 14.8 ± 1.5 nM; and B16, with 4.34 ± 0.32 nM.
With B17 the figure was 51 ± 10 nM; with B18, 13.1 ± 0.5 nM; with B19, 9.8 ± 1.1 nM.
B20: binding was characterised by a dissociation constant (Kd) of 27.7 ± 3.2 nM.
Then B21, with 18.7 ± 1.2 nM; and B22, with 47 ± 6 nM.
For the molecule B23, the Kd stood at 12.8 ± 0.8 nM.
